# Results taken from PMC8420576.
# Target: SARS-CoV-2 Spike RBD (residues 334–527), C-terminal Avi-His6 tag, biotinylated (SARS-CoV-2) (UniProt P0DTC2)
# Assay: BLI
substance,measurement,value
VHH72,Kd,27 nM
same,koff,0.0036 s⁻¹
